This note sets out measurements from patent US20060193849A1 (ANTISOMA, published 2006).

In test [1] the target is T1, MUC-1 gene product, the membrane mucin glycoprotein (polymorphic epithelial mucin or PEM) (human, UniProt P15941 24-1255).
T1 construct: whole, on cells; SKOV-3 is also named in the method
Put plainly: flow cytometry equilibrium binding on MCF7 cells, non-linear regression; after pre-incubation in PBS for 1 h at 37 C. For orientation: A flow cytometer gives signals particle by particle.
Method: (§1) Bound antibodies were detected under the same conditions, as described in the section entitled binding assays above.
(§2) The median fluorescence intensity (MFI) was determined as described in the binding assays section above and the background fluorescence was subtracted. Equilibrium constants were determined by using the Marquardt-Levenberg algorithm for non-linear regression with the GraphPad Prism version 3.0a for Macintosh (GraphPad Software, San Diego, Calif.).

Test [2] deals with T1, MUC-1 gene product, the membrane mucin …. The test is described as follows: flow cytometry equilibrium binding on MCF7 cells; after pre-incubation in PBS for 1 h at 37 C against no pre-incubation.
Method: as §1, §2
Test [3] has the same target. The test is described as follows: flow cytometry equilibrium binding on MCF7 cells, non-linear regression; 0 h at 37 C.
Method: as §1
After two final washing steps in 200 μl of FACS buffer, the cells were fixed in PBS buffer containing 2% paraformaldehyde for 15 minutes at room temperature and analysed by flow cytometry.
as §2
Test [4] has the same target. The test is described as follows: flow cytometry equilibrium binding on MCF7 cells; reference scFv 4.9M.
Method: as §1, §2

T1 sequence (P15941 24-1255): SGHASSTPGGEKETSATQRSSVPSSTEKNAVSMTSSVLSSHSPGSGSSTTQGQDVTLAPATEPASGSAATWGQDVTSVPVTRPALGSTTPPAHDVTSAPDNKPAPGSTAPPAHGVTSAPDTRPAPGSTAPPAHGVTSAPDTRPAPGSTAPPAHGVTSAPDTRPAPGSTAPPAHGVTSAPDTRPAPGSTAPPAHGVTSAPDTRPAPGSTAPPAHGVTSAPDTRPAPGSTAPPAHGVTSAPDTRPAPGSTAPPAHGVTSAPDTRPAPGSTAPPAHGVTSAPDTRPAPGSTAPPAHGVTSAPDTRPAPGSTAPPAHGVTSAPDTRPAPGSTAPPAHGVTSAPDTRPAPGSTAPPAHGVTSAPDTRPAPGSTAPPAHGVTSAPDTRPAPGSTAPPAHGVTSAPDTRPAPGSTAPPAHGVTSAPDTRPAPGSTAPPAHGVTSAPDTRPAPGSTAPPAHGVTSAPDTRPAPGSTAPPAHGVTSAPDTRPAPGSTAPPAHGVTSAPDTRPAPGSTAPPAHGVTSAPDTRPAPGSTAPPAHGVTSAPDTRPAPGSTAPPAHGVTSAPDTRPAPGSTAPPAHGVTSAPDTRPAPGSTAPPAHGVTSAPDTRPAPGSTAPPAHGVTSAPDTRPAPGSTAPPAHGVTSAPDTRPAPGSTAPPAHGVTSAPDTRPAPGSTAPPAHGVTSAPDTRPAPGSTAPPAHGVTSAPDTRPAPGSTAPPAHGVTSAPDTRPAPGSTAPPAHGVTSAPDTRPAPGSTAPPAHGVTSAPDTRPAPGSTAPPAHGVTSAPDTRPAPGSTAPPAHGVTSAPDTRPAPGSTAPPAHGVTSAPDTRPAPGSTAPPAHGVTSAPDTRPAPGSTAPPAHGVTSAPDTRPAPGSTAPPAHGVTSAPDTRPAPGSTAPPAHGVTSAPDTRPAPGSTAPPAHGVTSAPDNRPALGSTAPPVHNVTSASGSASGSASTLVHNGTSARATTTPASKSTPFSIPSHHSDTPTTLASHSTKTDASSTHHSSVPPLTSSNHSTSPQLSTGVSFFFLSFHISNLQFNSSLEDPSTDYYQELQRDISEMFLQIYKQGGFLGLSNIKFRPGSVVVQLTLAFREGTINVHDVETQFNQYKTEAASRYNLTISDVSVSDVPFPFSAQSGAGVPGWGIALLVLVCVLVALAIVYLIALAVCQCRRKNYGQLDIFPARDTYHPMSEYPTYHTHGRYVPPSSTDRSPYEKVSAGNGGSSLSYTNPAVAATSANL

B1: huHMFG1 scFv mutant 4.9M (stability engineered huHMFG1-scFv/Clone 4.9) (scFv)
scFv: QVQLVQSGAEVKKPGASVKVSCKASGYTFSAYWIEWVRQAPGKGLEWVGEILPGSNNSRYNEKFKGRVTVTADTSTNTAYMELSSLRSEDTAVYYCARSYDFAWFAYWGQGTLVTVSSGGGGSGGGGSGGGGSDIQMTQSPSSLSASVGDRVTITCKSSQSLLYSSNQKIYLAWYQQKPGKAPKLLIYWASTRESGVPSRFSGSGSGTDFTFTISSLQPEDIATYYCQQYYRYPRTFGQGTKVEIKR
notes: also called scFv 4.9M; HMFG1-scFv 4.9M
In the case of B1, the Kd came out at 195 nM in test [1] and 103 nM in test [3]. Moreover, the “fold decrease in antigen binding affinity after 1 hour at 37° C. in PBS” value in test [2] worked out at 1.9 fold.

B2: diabody Db 4.9M (other)
chain 1: QVQLVQSGAEVKKPGASVKVSCKASGYTFSAYWIEWVRQAPGKGLEWVGEILPGSNNSRYNEKFKGRVTVTADTSTNTAYMELSSLRSEDTAVYYCARSYDFAWFAYWGQGTLVTVSSGGGGSDIQMTQSPSSLSASVGDRVTITCKSSQSLLYSSNQKIYLAWYQQKPGKAPKLLIYWASTRESGVPSRFSGSGSGTDFTFTISSLQPEDIATYYCQQYYRYPRTFGQGTKVEIKR
chain 2: B2 chain 1
notes: also called diabody 4.9
With B2, the “fold higher affinity than the corresponding scFv 4.9M” value in test [4] came to 13 fold. This molecule displayed a dissociation constant (Kd) in test [3] of 8 nM.

In general, Kd refers to the free concentration of one partner at which half of the binding sites on the other are occupied at equilibrium, for simple one-to-one binding.
